From PMC5874619, “Enzymatic Preparation of 2,5-Furandicarboxylic Acid (FDCA)—A Substitute of Terephthalic Acid—By the Joined Action of Three Fungal Enzymes” (Microorganisms, 2018)

How the values were obtained:
Test in all cases: HPLC, varied substrate, Michaelis-Menten plot
PostAAO = test system: T1, PostAAO; type: biochemical, Pleurotus ostreatus
T1 construct: gene aao

[1] = substrate: O=Cc1ccc(C=O)o1; type: biochemical, Cyclocybe aegerita; settings: pH 6.0
[2] = substrate: O=Cc1ccc(CO)o1; type: biochemical, Cyclocybe aegerita; settings: pH 6.0

| Molecule | Km (PostAAO) | Km [1] | kcat [1] | kcat/Km [1] | Km [2] | kcat [2] | kcat/Km [2] |
| --- | --- | --- | --- | --- | --- | --- | --- |
| O=Cc1ccc(CO)o1 [HMF, 5-hydroxymethylfurfural] | 7.2 mM |  |  |  |  |  |  |
| (Cyclocybe aegerita) (protein) EPGLPPGPLENSSAKLVNDEAHPWKPLRPGDIRGPCPGLNTLASHGYLPRNGVATPVQIINAVQEGLNFDNQAAVFATYAAHLVDGNLITDLLSIGRKTRLTGPDPPPPASVGGLNEHGTFEGDASMTRGDAFFGNNHDFNETLFEQLVDYSNRFGGGKYNLTVAGELRFKRIQDSIATNPNFSFVDFRFFTAYGETTFPANLFVDGRRDDGQLDMDAARSFFQFSRMPDDFFRAPSPRSGTGVEVVIQAHPMQPGRNVGKINSYTVDPTSSDFSTPCLMYEKFVNITVKSLYPNPTVQLRKALNTNLDFFFQGVAAGCTQVFPYGRD |  | 0.82 mM | 29.2 s⁻¹ | 35600 M⁻¹ s⁻¹ | 6.07 mM | 222 s⁻¹ | 36600 M⁻¹ s⁻¹ |
